Data published in paper PMC9484695, “The evolutionary conserved proteins CEP90, FOPNL, and OFD1 recruit centriolar distal appendage proteins to initiate their assembly” (PLoS Biology, 2022).
Blank lines part the entries; values can stand above or below the binder they belong to.

Target: T1, CEP90 (overexpressed) (UniProt Q8WXW3 1-757)
T1 construct: CEP90 (PIBF1), cDNA clone from Dharmacon horizondiscovery; no tag is named; also called overexpressed CEP90; source: U2OS, transfected (lipofectamine 2000), in cells
T1 sequence (looked up): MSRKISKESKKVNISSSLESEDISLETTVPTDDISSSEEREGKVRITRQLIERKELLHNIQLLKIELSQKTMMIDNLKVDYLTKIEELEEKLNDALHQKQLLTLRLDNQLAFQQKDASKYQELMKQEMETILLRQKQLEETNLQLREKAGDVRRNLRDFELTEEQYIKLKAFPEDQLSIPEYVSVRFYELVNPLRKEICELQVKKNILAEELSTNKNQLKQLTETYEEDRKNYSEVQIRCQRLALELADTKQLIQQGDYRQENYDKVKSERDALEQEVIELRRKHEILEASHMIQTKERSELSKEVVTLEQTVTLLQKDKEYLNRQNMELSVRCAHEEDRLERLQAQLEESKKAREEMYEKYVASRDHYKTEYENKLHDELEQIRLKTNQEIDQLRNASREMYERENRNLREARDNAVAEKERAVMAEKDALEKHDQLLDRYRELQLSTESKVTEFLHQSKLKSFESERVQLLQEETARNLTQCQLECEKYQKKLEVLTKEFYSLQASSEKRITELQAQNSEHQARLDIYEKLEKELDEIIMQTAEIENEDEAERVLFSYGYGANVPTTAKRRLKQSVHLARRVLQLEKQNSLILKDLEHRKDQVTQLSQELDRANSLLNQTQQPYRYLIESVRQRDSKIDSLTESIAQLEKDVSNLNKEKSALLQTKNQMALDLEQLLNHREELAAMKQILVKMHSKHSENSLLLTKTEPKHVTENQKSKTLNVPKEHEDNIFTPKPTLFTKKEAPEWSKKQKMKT
Assay: microtubule recruitment (displacement) assay; U2OS cotransfected with MNR-GFP and CEP90, OFD1 mCherry or myc-FOPNL, 24 h; endogenous OFD1, CEP90, CEP83, CEP89, CEP164 stained; percent of cells with the endogenous protein on microtubules, 100 < N < 150 cells per condition, 3 experiments
Conditions: partners not purified

percent of cells with the endogenous protein on microtubules: 63.3%
B1: OFD1 (endogenous) (natural protein, UniProt O75665 1-1012, looked up)
chain: MMAQSNMFTVADVLSQDELRKKLYQTFKDRGILDTLKTQLRNQLIHELMHPVLSGELQPRSISVEGSSLLIGASNSLVADHLQRCGYEYSLSVFFPESGLAKEKVFTMQDLLQLIKINPTSSLYKSLVSGSDKENQKGFLMHFLKELAEYHQAKESCNMETQTSSTFNRDSLAEKLQLIDDQFADAYPQRIKFESLEIKLNEYKREIEEQLRAEMCQKLKFFKDTEIAKIKMEAKKKYEKELTMFQNDFEKACQAKSEALVLREKSTLERIHKHQEIETKEIYAQRQLLLKDMDLLRGREAELKQRVEAFELNQKLQEEKHKSITEALRRQEQNIKSFEETYDRKLKNELLKYQLELKDDYIIRTNRLIEDERKNKEKAVHLQEELIAINSKKEELNQSVNRVKELELELESVKAQSLAITKQNHMLNEKVKEMSDYSLLKEEKLELLAQNKLLKQQLEESRNENLRLLNRLAQPAPELAVFQKELRKAEKAIVVEHEEFESCRQALHKQLQDEIEHSAQLKAQILGYKASVKSLTTQVADLKLQLKQTQTALENEVYCNPKQSVIDRSVNGLINGNVVPCNGEISGDFLNNPFKQENVLARMVASRITNYPTAWVEGSSPDSDLEFVANTKARVKELQQEAERLEKAFRSYHRRVIKNSAKSPLAAKSPPSLHLLEAFKNITSSSPERHIFGEDRVVSEQPQVGTLEERNDVVEALTGSAASRLRGGTSSRRLSSTPLPKAKRSLESEMYLEGLGRSHIASPSPCPDRMPLPSPTESRHSLSIPPVSSPPEQKVGLYRRQTELQDKSEFSDVDKLAFKDNEEFESSFESAGNMPRQLEMGGLSPAGDMSHVDAAAAAVPLSYQHPSVDQKQIEEQKEEEKIREQQVKERRQREERRQSNLQEVLERERRELEKLYQERKMIEESLKIKIKKELEMENELEMSNQEIKDKSAHSENPLEKYMKIIQQEQDQESADKSSKKMVQEGSLVDTLQSSDKVESLTGFSHEELDDSW
notes: OFD1, endogenous human protein; source: endogenous: HEK293 Flp-In cells (BioID); Hela Kyoto lysate (co-IP); U2OS cells (microtubule recruitment assay)

percent of cells with the endogenous protein on microtubules: 66.7%
B2: CEP83 (endogenous) (natural protein, human (endogenous in U2OS), UniProt Q9Y592 1-701, looked up)
chain: MVVSTFTDMDTFPNNFPPGGDSGLTGSQSEFQKMLIDERLRCEHHKANYQTLKAEHTRLQNEHVKLQNELKHLFNEKQTQQEKLQLLLEELRGELVEKTKDLEEMKLQILTPQKLELLRAQIQQELETPMRERFRNLDEEVEKYRAVYNKLRYEHTFLKSEFEHQKEEYARILDEGKIKYESEIARLEEDKEELRNQLLNVDLTKDSKRVEQLAREKVYLCQKLKGLEAEVAELKAEKENSEAQVENAQRIQVRQLAEMQATVRSLEAEKQSANLRAERLEKELQSSSEQNTFLINKLHKAEREINTLSSKVKELKHSNKLEITDIKLETARAKSELERERNKIQSELDGLQSDNEILKAAVEHHKVLLVEKDRELIRKVQAAKEEGYQKLVVLQDEKLELENRLADLEKMKVEHDVWRQSEKDQYEEKLRASQMAEEITRKELQSVRLKLQQQIVTIENAEKEKNENSDLKQQISSLQIQVTSLAQSENDLLNSNQMLKEMVERLKQECRNFRSQAEKAQLEAEKTLEEKQIQWLEEKHKLHERITDREEKYNQAKEKLQRAAIAQKKRKSLHENKLKRLQEKVEVLEAKKEELETENQVLNRQNVPFEDYTRLQKRLKDIQRRHNEFRSLILVPNMPPTASINPVSFQSSAMVPSMELPFPPHMQEEQHQRELSLLRKRLEELETTQRKQLEELGSSGE
notes: CEP83, endogenous human protein; also called endogenous CEP83; source: endogenous, U2OS cells
